The numbers were not newly measured in PMC7557795, which cites them from elsewhere.

The target of data set [1] is IL-6R/gp130 (Homo sapiens) (UniProt P08887).
The target in a further data set is IL-6R (Homo sapiens) (UniProt P08887).
Sequence of IL-6R (Homo sapiens) (P08887 20-355): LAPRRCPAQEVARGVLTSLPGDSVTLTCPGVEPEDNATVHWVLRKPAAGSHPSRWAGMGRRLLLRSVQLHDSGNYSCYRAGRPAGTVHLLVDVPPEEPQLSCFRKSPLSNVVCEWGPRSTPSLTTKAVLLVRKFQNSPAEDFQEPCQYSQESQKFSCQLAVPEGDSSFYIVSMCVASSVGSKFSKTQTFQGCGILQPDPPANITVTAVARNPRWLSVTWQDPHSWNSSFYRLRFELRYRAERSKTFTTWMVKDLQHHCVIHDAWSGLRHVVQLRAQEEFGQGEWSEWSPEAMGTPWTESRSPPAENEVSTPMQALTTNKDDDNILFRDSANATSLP

Sequence of IL-6 (P05231 30-212): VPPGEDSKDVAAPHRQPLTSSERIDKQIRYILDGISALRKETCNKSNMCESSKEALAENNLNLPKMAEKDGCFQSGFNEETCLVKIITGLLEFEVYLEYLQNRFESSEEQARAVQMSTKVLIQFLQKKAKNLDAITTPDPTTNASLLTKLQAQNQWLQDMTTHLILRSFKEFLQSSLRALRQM
Sequence of IL-6R/gp130 (Homo sapiens) (P08887 20-365, chain 1 of 2): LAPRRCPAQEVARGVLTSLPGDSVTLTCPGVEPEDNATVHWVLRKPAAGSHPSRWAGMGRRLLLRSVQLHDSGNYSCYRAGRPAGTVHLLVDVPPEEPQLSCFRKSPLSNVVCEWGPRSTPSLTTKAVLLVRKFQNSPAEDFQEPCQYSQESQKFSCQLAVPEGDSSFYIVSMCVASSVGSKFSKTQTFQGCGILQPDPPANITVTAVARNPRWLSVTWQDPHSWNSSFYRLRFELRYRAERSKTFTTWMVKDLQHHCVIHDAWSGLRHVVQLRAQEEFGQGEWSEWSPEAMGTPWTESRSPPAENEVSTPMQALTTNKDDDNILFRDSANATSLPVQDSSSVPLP
Sequence of IL-6R/gp130 (Homo sapiens) (partner, as listed by the source, chain 2 of 2): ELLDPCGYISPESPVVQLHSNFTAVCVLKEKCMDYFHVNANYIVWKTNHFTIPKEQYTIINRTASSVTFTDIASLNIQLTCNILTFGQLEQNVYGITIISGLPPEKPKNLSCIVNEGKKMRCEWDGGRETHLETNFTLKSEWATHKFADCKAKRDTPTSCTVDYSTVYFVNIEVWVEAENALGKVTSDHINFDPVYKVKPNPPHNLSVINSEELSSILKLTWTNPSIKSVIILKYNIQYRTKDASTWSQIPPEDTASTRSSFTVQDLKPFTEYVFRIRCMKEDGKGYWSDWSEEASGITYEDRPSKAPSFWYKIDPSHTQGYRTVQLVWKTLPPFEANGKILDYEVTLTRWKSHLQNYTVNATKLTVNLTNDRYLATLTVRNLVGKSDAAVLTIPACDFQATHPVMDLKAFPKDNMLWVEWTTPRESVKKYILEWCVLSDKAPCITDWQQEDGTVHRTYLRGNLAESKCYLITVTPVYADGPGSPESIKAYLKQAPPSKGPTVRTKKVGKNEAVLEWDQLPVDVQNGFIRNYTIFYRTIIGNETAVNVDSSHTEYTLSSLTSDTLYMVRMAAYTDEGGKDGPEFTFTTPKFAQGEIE

Turning to IL-6 (from UniProt P05231), the values for the Kd (in data set [1]; with IL-6R (Homo sapiens)) were 0.08 nM and 0.9 nM, respectively.
